Results from patent US10941182 (Amgen, dated 2021).
Starred links: 1 amine or outer side, 2 acyl side, 3 side chain; linkers in the order of their positions; H or OH if unused. Non-standard residues stand in square brackets, D forms with d. Primed or numbered codes have the meaning given here. *: point of attachment. AC4Abu = α-carboxy-4-aminobutyric acid, O=C(C(CCN[*:1])C(=O)[*:3])[*:2]; Oic = O=C(O)[C@@H]1C[C@@H]2CCCC[C@@H]2N1; Phe(4-Cl) = N[C@@H](Cc1ccc(Cl)cc1)C(=O)O; dPhe(4-Cl) = N[C@H](Cc1ccc(Cl)cc1)C(=O)O; γGlu = O=C(O)[C@H](CCC(=O)[*:2])N[*:1]; d(β3hF) = N[C@@H](CC(=O)O)Cc1ccccc1; NMeR = CN[C@@H](CCCNC(=N)N)C(=O)O; Palmitoyl = CCCCCCCCCCCCCCCC(=O)*; αMeF = C[C@](N)(Cc1ccccc1)C(=O)O; Cha = N[C@@H](CC1CCCCC1)C(=O)O; αMeP = C[C@@]1(C(=O)O)CCCN1; β3hP = O=C(O)C[C@@H]1CCCN1; Nle = CCCC[C@H](N)C(=O)O; Pip′ = not defined here; AEEA = NCCOCCOCC(=O)O; Aib = CC(C)(N)C(=O)O; Inp = O=C(O)C1CCNCC1; Nip = nipecotic acid

T1: rat APJ receptor (rat, UniProt Q9JHG3 1-377)
T1 sequence (looked up): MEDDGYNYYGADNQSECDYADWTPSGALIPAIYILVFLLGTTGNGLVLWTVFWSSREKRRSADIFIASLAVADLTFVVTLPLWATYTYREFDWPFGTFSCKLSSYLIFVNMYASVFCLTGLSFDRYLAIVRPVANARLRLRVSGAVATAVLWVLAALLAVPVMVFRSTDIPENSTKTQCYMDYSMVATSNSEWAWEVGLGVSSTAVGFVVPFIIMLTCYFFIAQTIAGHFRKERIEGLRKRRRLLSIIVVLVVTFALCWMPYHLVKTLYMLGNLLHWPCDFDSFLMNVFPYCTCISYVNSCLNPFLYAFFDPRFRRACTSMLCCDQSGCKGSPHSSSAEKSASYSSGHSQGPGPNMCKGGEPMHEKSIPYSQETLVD

T2: human APJ receptor (human, UniProt P35414 1-380)
T2 sequence (looked up): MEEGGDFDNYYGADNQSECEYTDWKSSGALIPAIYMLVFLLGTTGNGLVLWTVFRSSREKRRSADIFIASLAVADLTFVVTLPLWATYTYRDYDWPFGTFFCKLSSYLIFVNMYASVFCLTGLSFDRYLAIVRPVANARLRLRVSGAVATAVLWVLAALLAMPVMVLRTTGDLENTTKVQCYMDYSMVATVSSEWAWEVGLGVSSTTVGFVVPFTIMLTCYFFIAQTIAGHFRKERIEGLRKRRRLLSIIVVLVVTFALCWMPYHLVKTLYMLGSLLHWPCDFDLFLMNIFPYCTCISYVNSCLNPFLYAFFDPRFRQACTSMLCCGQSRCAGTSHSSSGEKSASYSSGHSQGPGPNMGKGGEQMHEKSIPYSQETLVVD

B1: SEQ ID NO: 600 (peptide)
peptide: Palmitoyl-[γGlu][AEEA][AEEA][dQ]RP[NMeR][Cha]SHKG[Oic][Nle][β3hP][dPhe(4-Cl)]-OH
SMILES: CCCCCCCCCCCCCCCC(=O)N[C@@H](CCC(=O)NCCOCCOCC(=O)NCCOCCOCC(=O)N[C@H](CCC(N)=O)C(=O)N[C@@H](CCCNC(=N)N)C(=O)N1CCC[C@H]1C(=O)N(C)[C@@H](CCCNC(=N)N)C(=O)N[C@@H](CC1CCCCC1)C(=O)N[C@@H](CO)C(=O)N[C@@H](Cc1c[nH]cn1)C(=O)N[C@@H](CCCCN)C(=O)NCC(=O)N1[C@H](C(=O)N[C@@H](CCCC)C(=O)N2CCC[C@H]2CC(=O)N[C@H](Cc2ccc(Cl)cc2)C(=O)O)C[C@@H]2CCCC[C@@H]21)C(=O)O
B2: SEQ ID NO: 611 (peptide)
peptide: Palmitoyl-[γGlu][AEEA][AEEA][dQ]RP[NMeR][Cha]SHKG[Oic][Nle][β3hP][αMeF]-OH
SMILES: CCCCCCCCCCCCCCCC(=O)N[C@@H](CCC(=O)NCCOCCOCC(=O)NCCOCCOCC(=O)N[C@H](CCC(N)=O)C(=O)N[C@@H](CCCNC(=N)N)C(=O)N1CCC[C@H]1C(=O)N(C)[C@@H](CCCNC(=N)N)C(=O)N[C@@H](CC1CCCCC1)C(=O)N[C@@H](CO)C(=O)N[C@@H](Cc1c[nH]cn1)C(=O)N[C@@H](CCCCN)C(=O)NCC(=O)N1[C@H](C(=O)N[C@@H](CCCC)C(=O)N2CCC[C@H]2CC(=O)N[C@@](C)(Cc2ccccc2)C(=O)O)C[C@@H]2CCCC[C@@H]21)C(=O)O
B3: SEQ ID NO: 604 (peptide)
peptide: Palmitoyl-[γGlu][AEEA][AEEA][dQ]RP[NMeR][Cha]SHKG[Oic][Nle][Aib][dPhe(4-Cl)]-OH
SMILES: CCCCCCCCCCCCCCCC(=O)N[C@@H](CCC(=O)NCCOCCOCC(=O)NCCOCCOCC(=O)N[C@H](CCC(N)=O)C(=O)N[C@@H](CCCNC(=N)N)C(=O)N1CCC[C@H]1C(=O)N(C)[C@@H](CCCNC(=N)N)C(=O)N[C@@H](CC1CCCCC1)C(=O)N[C@@H](CO)C(=O)N[C@@H](Cc1c[nH]cn1)C(=O)N[C@@H](CCCCN)C(=O)NCC(=O)N1[C@H](C(=O)N[C@@H](CCCC)C(=O)NC(C)(C)C(=O)N[C@H](Cc2ccc(Cl)cc2)C(=O)O)C[C@@H]2CCCC[C@@H]21)C(=O)O
B4: SEQ ID NO: 587 (peptide)
peptide: Palmitoyl-[AC4Abu][AEEA][AEEA][dQ]RP[NMeR][Cha]SHKG[Oic][Nle][Inp][Phe(4-Cl)]-OH
SMILES: CCCCCCCCCCCCCCCC(=O)NCCC(C(=O)O)C(=O)NCCOCCOCC(=O)NCCOCCOCC(=O)N[C@H](CCC(N)=O)C(=O)N[C@@H](CCCNC(=N)N)C(=O)N1CCC[C@H]1C(=O)N(C)[C@@H](CCCNC(=N)N)C(=O)N[C@@H](CC1CCCCC1)C(=O)N[C@@H](CO)C(=O)N[C@@H](Cc1c[nH]cn1)C(=O)N[C@@H](CCCCN)C(=O)NCC(=O)N1[C@H](C(=O)N[C@@H](CCCC)C(=O)N2CCC(C(=O)N[C@@H](Cc3ccc(Cl)cc3)C(=O)O)CC2)C[C@@H]2CCCC[C@@H]21
B5: SEQ ID NO: 603 (peptide)
peptide: Palmitoyl-[γGlu][AEEA][AEEA][dQ]RP[NMeR][Cha]SHKG[Oic][Nle][Inp][dPhe(4-Cl)]-OH
SMILES: CCCCCCCCCCCCCCCC(=O)N[C@@H](CCC(=O)NCCOCCOCC(=O)NCCOCCOCC(=O)N[C@H](CCC(N)=O)C(=O)N[C@@H](CCCNC(=N)N)C(=O)N1CCC[C@H]1C(=O)N(C)[C@@H](CCCNC(=N)N)C(=O)N[C@@H](CC1CCCCC1)C(=O)N[C@@H](CO)C(=O)N[C@@H](Cc1c[nH]cn1)C(=O)N[C@@H](CCCCN)C(=O)NCC(=O)N1[C@H](C(=O)N[C@@H](CCCC)C(=O)N2CCC(C(=O)N[C@H](Cc3ccc(Cl)cc3)C(=O)O)CC2)C[C@@H]2CCCC[C@@H]21)C(=O)O
B6: SEQ ID NO: 610 (peptide)
peptide: Palmitoyl-[γGlu][AEEA][AEEA][dQ]RP[NMeR][Cha]SHKG[Oic][Nle][αMeP][αMeF]-OH
SMILES: CCCCCCCCCCCCCCCC(=O)N[C@@H](CCC(=O)NCCOCCOCC(=O)NCCOCCOCC(=O)N[C@H](CCC(N)=O)C(=O)N[C@@H](CCCNC(=N)N)C(=O)N1CCC[C@H]1C(=O)N(C)[C@@H](CCCNC(=N)N)C(=O)N[C@@H](CC1CCCCC1)C(=O)N[C@@H](CO)C(=O)N[C@@H](Cc1c[nH]cn1)C(=O)N[C@@H](CCCCN)C(=O)NCC(=O)N1[C@H](C(=O)N[C@@H](CCCC)C(=O)N2CCC[C@@]2(C)C(=O)N[C@@](C)(Cc2ccccc2)C(=O)O)C[C@@H]2CCCC[C@@H]21)C(=O)O
B7: SEQ ID NO: 608 (peptide)
peptide: Palmitoyl-[γGlu][AEEA][AEEA][dQ]RP[NMeR][Cha]SHKG[Oic][Nle][Aib][αMeF]-OH
SMILES: CCCCCCCCCCCCCCCC(=O)N[C@@H](CCC(=O)NCCOCCOCC(=O)NCCOCCOCC(=O)N[C@H](CCC(N)=O)C(=O)N[C@@H](CCCNC(=N)N)C(=O)N1CCC[C@H]1C(=O)N(C)[C@@H](CCCNC(=N)N)C(=O)N[C@@H](CC1CCCCC1)C(=O)N[C@@H](CO)C(=O)N[C@@H](Cc1c[nH]cn1)C(=O)N[C@@H](CCCCN)C(=O)NCC(=O)N1[C@H](C(=O)N[C@@H](CCCC)C(=O)NC(C)(C)C(=O)N[C@@](C)(Cc2ccccc2)C(=O)O)C[C@@H]2CCCC[C@@H]21)C(=O)O
B8: SEQ ID NO: 617 (peptide)
peptide: Palmitoyl-[γGlu][AEEA][AEEA][dQ]RP[NMeR][Cha]S[dH]KG[Oic][Nle][β3hP][d(β3hF)]-OH
SMILES: CCCCCCCCCCCCCCCC(=O)N[C@@H](CCC(=O)NCCOCCOCC(=O)NCCOCCOCC(=O)N[C@H](CCC(N)=O)C(=O)N[C@@H](CCCNC(=N)N)C(=O)N1CCC[C@H]1C(=O)N(C)[C@@H](CCCNC(=N)N)C(=O)N[C@@H](CC1CCCCC1)C(=O)N[C@@H](CO)C(=O)N[C@H](Cc1c[nH]cn1)C(=O)N[C@@H](CCCCN)C(=O)NCC(=O)N1[C@H](C(=O)N[C@@H](CCCC)C(=O)N2CCC[C@H]2CC(=O)N[C@@H](CC(=O)O)Cc2ccccc2)C[C@@H]2CCCC[C@@H]21)C(=O)O

Assays:
rat APJ receptor = target: T1, rat APJ receptor; assay: cell-based or functional assay
human APJ receptor = target: T2, human APJ receptor; assay: cell-based or functional assay

Row | Binder | EC50 Rat APJ Receptor (rat APJ receptor) | EC50 Human APJ Receptor (human APJ receptor)
1 | Palmitoyl-[AC4Abu][AEEA][AEEA][dQ]RP[NMeR][Cha]SHKG[Pip′][Nle][d(β3hF)]-OH [SEQ ID NO: 574] | 2.83 nM | 0.652 nM
2 | Palmitoyl-[γGlu][AEEA][AEEA][dQ]RP[NMeR][Cha]SHKG[Oic][Nle][β3hP][dAMF]-OH [SEQ ID NO: 612] | 4.62 nM | 1.72 nM
3 | B1 | 4.46 nM | 1.66 nM
4 | B2 | 1.57 nM | 0.722 nM
5 | B3 | 0.512 nM | 0.423 nM
6 | B4 | 3.58 nM | 1.29 nM
7 | B5 | 32.3 nM | 2.96 nM
8 | Palmitoyl-[γGlu][AEEA][AEEA][dQ]RP[NMeR][Cha]SHKG[Oic][Nle][Pip′][αMeF]-OH [SEQ ID NO: 609] | 2.49 nM | 1.25 nM
9 | B6 | 4.98 nM | 1.06 nM
10 | Palmitoyl-[AC4Abu][AEEA][AEEA][dQ]RP[NMeR][Cha]SHKG[Pip′][Nle]P[d(β3hF)]-OH [SEQ ID NO: 568] | 4.55 nM | 2.97 nM
11 | Palmitoyl-[γGlu][AEEA][AEEA][dQ]RP[NMeR][Cha]SHKG[Oic][Nle][Nip][dPhe(4-Cl)]-OH [SEQ ID NO: 602] | 25.6 nM | 5.48 nM
12 | Palmitoyl-[γGlu][AEEA][AEEA][dQ]RP[NMeR][Cha]SHKG[Oic][Nle]P[dAMF]-OH [SEQ ID NO: 607] | 0.55 nM | 0.0956 nM
13 | Palmitoyl-[γGlu][AEEA][AEEA][dQ]RP[NMeR][Cha]SHKG[Oic][Nle][Pip′][dPhe(4-Cl)]-OH [SEQ ID NO: 601] | 3.25 nM | 3.44 nM
14 | B7 | 0.326 nM | 0.214 nM
15 | B8 | 25.8 nM | 8.68 nM
